Source: the supplement of paper PMC12783771
Positions count from the first letter of the chain named. ± gives the standard deviation of the averaged measurements.

B1: library; numbered along this chain (parent)
chain: MNIQIGELAKRTACPVVTIRFYEQEGLLPPPGRSRGNFRLYGEEHVERLQFIRHCRSLDMPLSDVRTLLSYRKRPDQDCGEVNMLLDEHIRQVESRIGALLELKHHLVELREACSGARPAQSCGILQGLSDCVCDTRGTTAHPSD
B2: library; a variant is named by its letters at X, in order (parent)
chain: B1 chain with D64X, N83X, I90X, K104X, H106X, P143X

Tests used:
[1] = variants of: B1; experiment: sfGFP reporter fluorescence (15 h) (µM FITC); higher = higher leak; conditions: library round: Round 0; ligand: none
Procedure, shortened: (§1)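 Linear PbrR templates were made by PCR, normalized to 5 nM with an Echo, and expressed in BL21 Star (DE3) PANOx-SP extract with the pPbrR-sfGFP reporter plasmid and 30 μg/mL GamS. Echo-assembled 1 μL reactions held 1 µM lead chloride, 30 µM zinc acetate or no metal and were incubated 15 hr at 30 °C. Endpoint sfGFP fluorescence was read on a Synergy Neo2 and expressed as µM FITC using standard curves. Up to three biological replicates were run.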

[2] = variants of: B1; experiment: sfGFP reporter fluorescence (15 h) (µM FITC); higher = stronger transcriptional activation; conditions: library round: Round 0
Procedure, shortened: as §1

[3] = variants of: B2; experiment: sfGFP reporter fluorescence (15 h) (µM FITC); higher = higher leak; conditions: library round: Round 3b; ligand: none
Protocol: (§2)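 Cell-free biosensing: 1 µL Echo-assembled CFE reactions with linear PbrR variant templates (5 nM) and pPbrR-sfGFP reporter, with 1 µM Pb, 30 µM Zn or no ligand; endpoint sfGFP fluorescence after 15 h at 30 °C calibrated as µM FITC. Round 3b rational combinatorial PbrR mutants; 3 biological replicates.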

[4] = variants of: B2; experiment: sfGFP reporter fluorescence (15 h) (µM FITC); higher = stronger transcriptional activation; conditions: library round: Round 3b
Protocol: as §2

Row | Variant | sfGFP reporter fluorescence [1] | sfGFP reporter fluorescence ([2]; ligand: 1 µM Pb) | sfGFP reporter fluorescence ([2]; ligand: 30 µM Zn) | sfGFP reporter fluorescence [3] | sfGFP reporter fluorescence ([4]; ligand: 1 µM Pb) | sfGFP reporter fluorescence ([4]; ligand: 30 µM Zn)
1 | P143A | 0.0696 ± 0.0015 | 0.0806 ± 0.0026 | 0.4 ± 0.12 | – | – | –
2 | P143C | 0.0574 ± 0.0013 | 0.07678 ± 0.00026 | 0.495 ± 0.12 | – | – | –
3 | P143D | 0.05754 ± 0.00052 | 0.0733 ± 0.0021 | 0.782 ± 0.024 | – | – | –
4 | P143E | 0.0563 ± 0.00078 | 0.0696 ± 0.0026 | 0.635 ± 0.04 | – | – | –
5 | P143F | 0.0568 ± 0.0015 | 0.0819 ± 0.0039 | 0.777 ± 0.052 | – | – | –
6 | P143G | 0.05351 ± 0.00052 | 0.06945 ± 0.00026 | 0.71 ± 0.092 | – | – | –
7 | P143H | 0.0585 ± 0.0018 | 0.0786 ± 0.0013 | 0.764 ± 0.072 | – | – | –
8 | P143I | 0.05534 ± 0.00052 | 0.0768 ± 0.0023 | 0.801 ± 0.12 | – | – | –
9 | P143K | 0.0581 ± 0.00078 | 0.07293 ± 0.00052 | 0.889 ± 0.15 | – | – | –
10 | P143L | 0.0563 ± 0.0018 | 0.0782 ± 0.0029 | 0.837 ± 0.046 | – | – | –
11 | P143M | 0.05736 ± 0.00026 | 0.0799 ± 0.001 | 0.812 ± 0.12 | – | – | –
12 | P143N | 0.0568 ± 0.0015 | 0.0718 ± 0.0057 | 0.865 ± 0.12 | – | – | –
13 | P143Q | 0.0566 ± 0.0039 | 0.0735 ± 0.0049 | 0.871 ± 0.098 | – | – | –
14 | P143R | 0.05864 ± 0.00052 | 0.0806 ± 0.0052 | 0.983 ± 0.14 | – | – | –
15 | P143S | 0.0566 ± 0.0023 | 0.07568 ± 0.00026 | 0.842 ± 0.05 | – | – | –
16 | P143T | 0.05772 ± 0.00026 | 0.0713 ± 0.0065 | 0.821 ± 0.11 | – | – | –
17 | P143V | 0.0559 ± 0.0013 | 0.0726 ± 0.0026 | 0.757 ± 0.14 | – | – | –
18 | P143W | 0.0588 ± 0.0029 | 0.0861 ± 0.0026 | 0.751 ± 0.11 | – | – | –
19 | P143Y | 0.05846 ± 0.00026 | 0.0834 ± 0.0039 | 0.73 ± 0.013 | – | – | –
20 | S144A | 0.0586 ± 0.0036 | 0.0588 ± 0.0023 | 0.493 ± 0.16 | – | – | –
21 | D145A | 0.0599 ± 0.0013 | 0.0702 ± 0.0039 | 0.56 ± 0.036 | – | – | –
22 | KFAKAP | – | – | – | 0.0577 ± 0.0042 | 0.495 ± 0.031 | 0.073 ± 0.0081

Row | Variant | sfGFP reporter fluorescence [1] | sfGFP reporter fluorescence ([2]; ligand: 1 µM Pb) | sfGFP reporter fluorescence ([2]; ligand: 30 µM Zn) | sfGFP reporter fluorescence [3] | sfGFP reporter fluorescence ([4]; ligand: 1 µM Pb) | sfGFP reporter fluorescence ([4]; ligand: 30 µM Zn)
23 | DFAKAR | – | – | – | 0.0429 ± 0.0064 | 0.0535 ± 0.005 | 0.0435 ± 0.0051
24 | KFAKAR | – | – | – | 0.0579 ± 0.0044 | 0.663 ± 0.0095 | 0.0902 ± 0.0064
25 | DFAKAT | – | – | – | 0.0421 ± 0.0041 | 0.0502 ± 0.0044 | 0.04614 ± 0.00019
26 | KFAKAT | – | – | – | 0.0569 ± 0.0013 | 0.564 ± 0.039 | 0.0878 ± 0.0047
27 | KFAKEP | – | – | – | 0.0525 ± 0.0023 | 0.414 ± 0.015 | 0.0724 ± 0.0068
28 | DFAKER | – | – | – | 0.044 ± 0.0022 | 0.0459 ± 0.002 | 0.0423 ± 0.00089
29 | KFAKER | – | – | – | 0.0536 ± 0.0034 | 0.438 ± 0.026 | 0.0631 ± 0.0086
30 | DFAKET | – | – | – | 0.037 ± 0.0032 | 0.0413 ± 0.00089 | 0.0436 ± 0.0024
31 | KFAKET | – | – | – | 0.0549 ± 0.0049 | 0.413 ± 0.019 | 0.0675 ± 0.0044
32 | KFAKHR | – | – | – | 0.0685 ± 0.0035 | 0.843 ± 0.073 | 0.33 ± 0.014
33 | KFAKHT | – | – | – | 0.0669 ± 0.0082 | 0.777 ± 0.035 | 0.299 ± 0.047
34 | DFATAP | – | – | – | 0.0454 ± 0.0046 | 0.048 ± 0.0038 | 0.0454 ± 0.0051
35 | KFATAP | – | – | – | 0.0501 ± 0.0052 | 0.3845 ± 0.0014 | 0.0524 ± 0.00067
36 | DFATAR | – | – | – | 0.0431 ± 0.00051 | 0.05286 ± 0.00019 | 0.0448 ± 0.0015
37 | KFATAR | – | – | – | 0.0492 ± 0.0024 | 0.462 ± 0.068 | 0.0554 ± 0.0012
38 | DFATAT | – | – | – | 0.0428 ± 0.0034 | 0.0475 ± 0.0011 | 0.0455 ± 0.0051
39 | KFATAT | – | – | – | 0.0465 ± 0.0042 | 0.455 ± 0.007 | 0.056 ± 0.0037
40 | DFATEP | – | – | – | 0.041 ± 0.0024 | 0.0428 ± 0.0007 | 0.0444 ± 0.0036
41 | KFATEP | – | – | – | 0.0465 ± 0.0032 | 0.442 ± 0.0057 | 0.0564 ± 0.0029
42 | DFATER | – | – | – | 0.044 ± 0.0013 | 0.0474 ± 0.0018 | 0.0469 ± 0.0034
43 | KFATER | – | – | – | 0.0457 ± 0.0041 | 0.594 ± 0.024 | 0.0571 ± 0.014
44 | DFATET | – | – | – | 0.0435 ± 0.0019 | 0.0466 ± 0.0012 | 0.0451 ± 0.001
